{"source": "paper PMC8561740", "biological_target": "bovine thyroglobulin (natively iodinated) (bovine) (UniProt P01267)", "experiment": "cryo-EM structure; single-particle cryoEM; Tg at 7 mg/ml in 10 mM HEPES pH 7.4, 100 mM NaCl with 0.2% (w/v) CHAPS; vitrified at 4°C; C2 symmetry expansion, focused refinements"}
{"substance": "bovine thyroglobulin (natively iodinated) (from UniProt P01267 20-2769) (natural protein)", "values": [{"measurement": "stoichiometry N", "result": 2}]}
